The values below come from patent US20260285942 (published 2026).

One experiment has as its target human TfR ECD (human). Nature of the experiment: SPR.
Experiment [1] has as its target T1, cynomolgus monkey TfR ECD (Macaca fascicularis).
T1 chain: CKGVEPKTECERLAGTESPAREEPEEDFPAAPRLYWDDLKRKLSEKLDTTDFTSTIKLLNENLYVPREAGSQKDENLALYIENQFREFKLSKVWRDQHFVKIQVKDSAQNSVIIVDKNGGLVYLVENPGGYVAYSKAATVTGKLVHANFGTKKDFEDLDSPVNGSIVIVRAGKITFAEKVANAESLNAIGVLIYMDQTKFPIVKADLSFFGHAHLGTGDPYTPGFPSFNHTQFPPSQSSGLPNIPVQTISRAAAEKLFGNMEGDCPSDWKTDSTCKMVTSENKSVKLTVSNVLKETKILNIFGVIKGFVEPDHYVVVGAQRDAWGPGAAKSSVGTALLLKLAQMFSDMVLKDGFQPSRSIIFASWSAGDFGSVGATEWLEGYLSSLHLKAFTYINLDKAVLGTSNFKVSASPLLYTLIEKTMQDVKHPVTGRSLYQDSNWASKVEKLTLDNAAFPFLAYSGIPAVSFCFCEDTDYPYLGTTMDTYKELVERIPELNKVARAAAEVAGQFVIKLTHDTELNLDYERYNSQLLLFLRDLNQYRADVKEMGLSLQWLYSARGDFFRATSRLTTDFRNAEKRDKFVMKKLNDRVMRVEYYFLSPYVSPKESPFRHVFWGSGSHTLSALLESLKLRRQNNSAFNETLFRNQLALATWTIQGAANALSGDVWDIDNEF
Nature of the experiment: SPR.

B1: hTfR affinity peptide 1 (designed binder)
chain: QVQLVESGGGLVHPGGSLRLSCVASGTSFSLNVVTWYRQALGKQREWVATINQSEAPTYADSVKGRFTISRDGAKNTVYLQMNSLVTEDTALYYCYDRYNEIRGQGTQVTVSS
Consider B1, for which the Kd in the experiment with human TfR ECD came to 16.5 nM; in experiment [1], 17.6 nM.

B2: hTfR affinity peptide 2 (designed binder)
chain: QVQLVESGGGLVHPGGSLSLSCAASGTSFSFNTVTWYRQALGKQREWVATINGSGAPTYADSVKGRFTISRDGAKNTVYLLMNSLVTEDTALYYCYDRYNEIRGQGTQVTVSS
B2: the Kd was 16.5 nM with human TfR ECD and 17.6 nM in experiment [1].
